Data as given in article PMC7195466, “A common allosteric mechanism regulates homeostatic inactivation of auxin and gibberellin” (Nature Communications, 2020).
Where a chain is given by its changes, count along the chain named. Names and notes keep the numbering of the source. Blank lines part the entries; values can stand above or below the binder they belong to.

Tests used:
[1] = substrate: C=C1C[C@]23C[C@H]1CC[C@H]2[C@@]12CC[C@H](O)[C@@](C)(C(=O)O1)[C@H]2[C@@H]3C(=O)O; assay: GC-SIM-MS of GA34; type: biochemical, Oryza sativa; details: multimer forms measured separately (monomer, dimer, tetramer); same
Excerpt: GC-SIM-MS of GA34 on OsGA2ox3 (GA 2-oxidase 3) | The […]/[…]-tetramer affected both the Km and the Vmax values

[2] = substrate: C=C1C[C@]23C[C@H]1CC[C@H]2[C@@]12CC[C@H](O)[C@@](C)(C(=O)O1)[C@H]2[C@@H]3C(=O)O; assay: GC-SIM-MS of GA34; type: biochemical, Oryza sativa; details: multimer forms measured separately; Methods print Cys187 instead of C186; same
Excerpt: GC-SIM-MS of GA34 on OsGA2ox3 (GA 2-oxidase 3) | whereas the […]/[…] monomer affected only the Km

[3] = molecular target: Oryza sativa dioxygenase for auxin oxidation (OsDAO) (rice (Oryza sativa)) (UniProt Q7XKU5)

B1: OsGA2ox3 (GA 2-oxidase 3) (Oryza sativa Japonica Group; F100A/R97A) (protein)
chain: MVVLAGPPAVDHIPLLRSPDPGDVFSGVPVVDLGSPGAARAVVDACERYGFFKVVNHGVATDTMDKAESEAVRFFSQTQPDKDRSGPAYPFGYGSKAIGANGDMGWLEYLLLALDDASLADACTVPSCAVFRAALNEYISGVRKVAVRVMEAMSEGLGIAQADALSALVTAEGSDQVFRVNHYPPCRALQGLGCSVTGFGEHTDPQLVSVLRSNGTSGLQIALRDGQWVSVPSDRDSFFVNVGDSLQVLTNGRFKSVKHRVVANSLKSRVSFIYFGGPPLAQRIAPLPQLLGEGEQSLYKEFTWDEYKKAAYKSRLGDNRLAQFEKK
notes: full-length coding region in pGEX6P1, GST tag cut off with PreScission protease, E. coli Rosetta (DE3) pLysS; monomer, homotetramer with GA4
Km [1]: 0.52 ± 0.10 (tetramer) μM

B2: OsGA2ox3 (GA 2-oxidase 3) (Oryza sativa Japonica Group; C186A/W106A) (protein)
chain: B1 chain with A97R, A100F, W106A, C186A
notes: as for B1
Km [2]: 5.41 ± 0.96 (monomer) μM

Vmax of the dimer against the monomer (forms separated by gel filtration) [3]: 22 fold
B3: Oryza sativa dioxygenase for auxin oxidation (OsDAO) (enzyme)
chain: MVEIPAIDLRLAGGGGGAEETARLRDACARLGCFRVSGHGVPPGLQAEMKAAVRALFDLPDDAKRRNADIIPGSGYVPPGTANPLYEAFGLCDAAAPADVDAFCARLDAPPHVRETVKAYAERMHSLIVDVAGKVAASLGLHGASFQDWPCQFRMNRYNYTQDSVGSPGVQVHTDSGFLTVLQEDECVGGLEVLDPAAGEFVPVDPLPGSFVVNVGDVGQAWSNGRLHNVKHRVQCVAAVPRVSIAMFLLAPKDDTVSAPGELVDGEHPRRYREFKYDDYRRLRLSTGERAGEALARLAA
